In the supplement of paper PMC10724198:
± gives the standard deviation of the averaged measurements.

Columns and labels:
[1] = test system: Saccharomyces cerevisiae; test: protein stability index of tFT-peptide fusion (C-terminal peptide) (PSI (0-1 scale)); higher = more stable (slower turnover); conditions: genetic background: wild type; temperature: 30 C
[2] = test system: Saccharomyces cerevisiae; test: as above
Protocol: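 MPS profiling in S. cerevisiae of the tFT-X12 degron library: putative degron peptides plus stable controls, 12 aa, fused to the C-terminus of a sfGFP-mCherry timer. Cells are FACS-sorted into 8 mCherry/sfGFP bins and deep-sequenced. PSI runs from 0 (unstable) to 1 (stable). Backgrounds are wild type, das1Δ and doa10Δ at 30 °C, and wild type, das1Δ, cdc34-1 and cdc53-1 at 37 °C; 2-3 technical replicates each.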

[3] = genetic background: cdc34-1, temperature: 37 C
[4] = genetic background: cdc53-1, temperature: 37 C
[5] = genetic background: das1 deletion, temperature: 30 C
[6] = genetic background: das1 deletion, temperature: 37 C
[7] = genetic background: doa10 deletion, temperature: 30 C
[8] = genetic background: wild type, temperature: 30 C
[9] = genetic background: wild type, temperature: 37 C
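Note: PSI is a weighted mean of sequencing reads over stability bins, variants kept only with over 10 reads, mCherry proximal and sfGFP distal, peptide attached via GGGS linker.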

Row | Sequence | protein stability index [1] | protein stability index [2, 3] | protein stability index [2, 4] | protein stability index [2, 5] | protein stability index [2, 6] | protein stability index [2, 7] | protein stability index [2, 8] | protein stability index [2, 9]
1 | SFFSQAIPILAA | 0.225 ± 0.072 | 0.0333 ± 0.0079 | 0.039 ± 0.0039 | 0.152 ± 0.027 | 0.115 ± 0.015 | 0.129 ± 0.0039 | 0.15 ± 0.021 | 0.0837 ± 0.023
2 | SFLCILIFPFFP | 0.469 ± 0.034 | 0.497 ± 0.051 | 0.6 ± 0.015 | 0.411 ± 0.02 | 0.6 ± 0.015 | 0.391 ± 0.011 | 0.408 ± 0.028 | 0.5623 ± 0.0044
3 | SFSFRPCLLLFF | 0.336 ± 0.099 | 0.32771 ± 1.1e-05 | 0.355 ± 0.0074 | 0.357 ± 0.036 | 0.51 ± 0.0096 | 0.38211 ± 0.00035 | 0.283 ± 0.033 | 0.417 ± 0.021
4 | SFVFLVRRWLFV | 0.213 ± 0.025 | 0.354 ± 0.071 | 0.582 ± 0.02 | 0.563 ± 0.011 | 0.622 ± 0.023 | 0.136 ± 0.0077 | 0.133 ± 0.017 | 0.159 ± 0.011
5 | SFYVCVPVLWLV | 0.201 ± 0.0038 | 0.248 ± 0.024 | 0.29 ± 0.036 | 0.27 ± 0.029 | 0.407 ± 0.0054 | 0.136 ± 0.0076 | 0.118 ± 0.015 | 0.146 ± 0.028
6 | SGRAWRLRMHVI | 0.406 ± 0.17 | 0.663 ± 0.02 | 0.749 ± 0.011 | 0.661 ± 0.037 | 0.757 ± 0.018 | 0.263 ± 0.0029 | 0.269 ± 0.012 | 0.459 ± 0.041
7 | SGRFRAFVLRSM | 0.476 ± 0.0099 | 0.692 ± 0.012 | 0.746 ± 0.01 | 0.646 ± 0.029 | 0.7 ± 0.036 | 0.272 ± 0.019 | 0.298 ± 0.035 | 0.56 ± 0.032
8 | SGRFRFVLLGLV | 0.203 ± 0.021 | 0.558 ± 0.032 | 0.601 ± 0.008 | 0.455 ± 0.03 | 0.632 ± 0.00071 | 0.122 ± 0.023 | 0.156 ± 0.023 | 0.253 ± 0.0054
9 | SGVVWFYIFCLS | 0.361 ± 0.011 | 0.4729 ± 0.00067 | 0.535 ± 0.0018 | 0.322 ± 0.038 | 0.57 ± 0.015 | 0.254 ± 0.014 | 0.279 ± 0.043 | 0.494 ± 0.023
